We go through four molecules from article PMC9780825 (2022).

No end group written: not given here.

For test [1], the target named is T1, Kv1.3 (mKate2-tagged, K-ΔKv1.3) 53-C-terminus (deletion M1-D52) (Homo sapiens, UniProt P22001). In words: fluorescent competitive binding assay (confocal, HEK293 cells).
The target in test [2] is Kv1.3 (mKate2-tagged, K-Kv1.3) (Homo sapiens, UniProt P22001). In words: confocal fluorescence binding on HEK293 cells.
Test [3] addresses T1, Kv1.3 (mKate2-tagged, K-ΔKv1.3) …. In words: confocal fluorescence binding on HEK293 cells.

T1 sequence (P22001 53-575, stated change not applied): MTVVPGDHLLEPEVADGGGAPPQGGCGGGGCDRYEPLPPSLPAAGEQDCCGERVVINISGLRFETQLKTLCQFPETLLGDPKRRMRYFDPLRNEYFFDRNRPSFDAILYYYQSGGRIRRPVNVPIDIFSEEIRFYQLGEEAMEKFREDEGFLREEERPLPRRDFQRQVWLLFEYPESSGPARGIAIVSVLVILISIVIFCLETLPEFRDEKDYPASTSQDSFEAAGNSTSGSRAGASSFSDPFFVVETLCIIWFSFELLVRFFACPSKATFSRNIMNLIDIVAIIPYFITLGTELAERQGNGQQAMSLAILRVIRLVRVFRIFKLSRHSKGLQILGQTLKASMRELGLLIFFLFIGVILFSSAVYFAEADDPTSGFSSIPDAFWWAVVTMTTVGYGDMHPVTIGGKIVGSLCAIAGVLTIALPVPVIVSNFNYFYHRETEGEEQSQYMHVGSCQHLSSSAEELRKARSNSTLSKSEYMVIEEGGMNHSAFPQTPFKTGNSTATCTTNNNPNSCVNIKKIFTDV
Kv1.3 (mKate2-tagged, K-Kv1.3), sequence (P22001 whole entry): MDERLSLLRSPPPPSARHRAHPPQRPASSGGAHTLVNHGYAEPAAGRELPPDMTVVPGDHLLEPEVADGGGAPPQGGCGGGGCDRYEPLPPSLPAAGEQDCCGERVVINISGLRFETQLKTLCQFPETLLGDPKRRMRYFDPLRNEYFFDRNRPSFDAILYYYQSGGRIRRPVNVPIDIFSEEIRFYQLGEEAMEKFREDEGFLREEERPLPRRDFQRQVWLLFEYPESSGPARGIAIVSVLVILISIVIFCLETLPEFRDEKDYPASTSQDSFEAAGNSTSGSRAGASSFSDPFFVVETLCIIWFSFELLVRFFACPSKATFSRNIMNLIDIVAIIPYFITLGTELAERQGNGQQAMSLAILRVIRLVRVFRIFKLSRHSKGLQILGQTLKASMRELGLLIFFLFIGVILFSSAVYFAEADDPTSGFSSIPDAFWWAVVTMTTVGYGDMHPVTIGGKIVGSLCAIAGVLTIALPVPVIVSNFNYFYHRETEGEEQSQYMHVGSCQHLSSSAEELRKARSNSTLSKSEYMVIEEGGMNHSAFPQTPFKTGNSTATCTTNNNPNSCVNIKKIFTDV

Usually Ki stands for a measure of affinity in units of concentration, obtained from inhibition or displacement. Lower therefore signals a stronger hold on the target. In the case of TVIDVKCTSPKQCLPPCKAQFGIRAGAKCMNGKCKCYPH (ends and bridges not checked; cysteine pairing not given here) [Hongotoxin 1 (HgTx1)], in test [1], the affinity corresponds to a Ki of 0.2 nM.
Turning to GVEINVKCSGSPQCLKPCKDAGMRFGKCMNRKCHCTPK (ends and bridges not checked; cysteine pairing not given here) [Kaliotoxin 1 (KTx1)], affinity in test [1] was put at a Ki of 4 nM.
GVPINVSCTGSPQCIKPCKDAGMRFGKCMNRKCHCTPK (ends and bridges not checked; cysteine pairing not given here) [Agitoxin 2 (AgTx2)] yielded an inhibition constant (Ki) in test [1] of 1.1 nM.
As a reminder, the Kd is the concentration at which binding is half-saturated. With Atto488-TVIDVKCTSPKQCLPPCKAQFGIRAGAKCMNGKCKCYPH (ends and bridges not checked) [Hongotoxin 1 (Atto488-labeled, A-HgTx)], the equilibrium dissociation constant (Kd) came to 0.3 nM in test [2] and 0.48 nM in test [3].
